In paper PMC9295147 (2022):
Changes are numbered by the printed parent chain.

T1: dT14-3-3_biCHK1, unphosphorylated (Tobacco | )
T1 chain: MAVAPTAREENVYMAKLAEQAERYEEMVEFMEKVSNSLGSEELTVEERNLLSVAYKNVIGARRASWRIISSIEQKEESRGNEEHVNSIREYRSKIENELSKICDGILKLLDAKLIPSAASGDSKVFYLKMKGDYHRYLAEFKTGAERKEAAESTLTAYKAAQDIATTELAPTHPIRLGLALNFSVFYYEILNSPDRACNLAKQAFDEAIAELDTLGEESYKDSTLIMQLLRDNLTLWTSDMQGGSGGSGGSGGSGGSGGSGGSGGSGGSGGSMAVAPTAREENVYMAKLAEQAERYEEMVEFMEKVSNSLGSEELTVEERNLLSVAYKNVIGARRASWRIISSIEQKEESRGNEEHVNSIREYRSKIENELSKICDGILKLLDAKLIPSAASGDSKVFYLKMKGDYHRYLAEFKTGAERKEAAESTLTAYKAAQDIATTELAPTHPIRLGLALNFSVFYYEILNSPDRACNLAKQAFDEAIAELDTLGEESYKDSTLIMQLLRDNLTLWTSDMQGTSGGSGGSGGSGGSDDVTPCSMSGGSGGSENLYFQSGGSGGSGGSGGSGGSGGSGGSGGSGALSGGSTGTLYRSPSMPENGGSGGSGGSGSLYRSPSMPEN

T2: dT14-3-3_biPKB, unphosphorylated (Tobacco | )
T2 chain: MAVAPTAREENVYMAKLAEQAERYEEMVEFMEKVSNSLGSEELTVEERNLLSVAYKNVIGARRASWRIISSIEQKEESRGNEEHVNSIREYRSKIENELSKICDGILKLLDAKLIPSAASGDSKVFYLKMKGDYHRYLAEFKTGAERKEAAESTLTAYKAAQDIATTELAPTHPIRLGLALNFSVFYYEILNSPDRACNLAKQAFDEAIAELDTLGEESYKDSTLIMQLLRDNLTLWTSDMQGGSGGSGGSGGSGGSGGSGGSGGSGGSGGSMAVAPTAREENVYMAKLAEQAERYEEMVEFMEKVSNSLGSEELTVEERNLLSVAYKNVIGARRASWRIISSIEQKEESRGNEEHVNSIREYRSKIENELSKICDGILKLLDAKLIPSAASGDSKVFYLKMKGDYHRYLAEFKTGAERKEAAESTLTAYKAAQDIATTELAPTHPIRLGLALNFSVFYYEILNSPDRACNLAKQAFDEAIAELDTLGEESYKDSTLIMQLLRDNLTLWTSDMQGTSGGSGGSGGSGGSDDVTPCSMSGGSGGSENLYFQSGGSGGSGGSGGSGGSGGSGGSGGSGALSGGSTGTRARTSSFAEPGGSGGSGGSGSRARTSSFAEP

T3: dT14-3-3_PKB/CHK1, unphosphorylated (Tobacco | )
T3 chain: T1 chain with L586R, Y587A, S589T, P590S, M592F, P593A, N595P

T4: dT14-3-3_biPKA, unphosphorylated (Tobacco | )
T4 chain: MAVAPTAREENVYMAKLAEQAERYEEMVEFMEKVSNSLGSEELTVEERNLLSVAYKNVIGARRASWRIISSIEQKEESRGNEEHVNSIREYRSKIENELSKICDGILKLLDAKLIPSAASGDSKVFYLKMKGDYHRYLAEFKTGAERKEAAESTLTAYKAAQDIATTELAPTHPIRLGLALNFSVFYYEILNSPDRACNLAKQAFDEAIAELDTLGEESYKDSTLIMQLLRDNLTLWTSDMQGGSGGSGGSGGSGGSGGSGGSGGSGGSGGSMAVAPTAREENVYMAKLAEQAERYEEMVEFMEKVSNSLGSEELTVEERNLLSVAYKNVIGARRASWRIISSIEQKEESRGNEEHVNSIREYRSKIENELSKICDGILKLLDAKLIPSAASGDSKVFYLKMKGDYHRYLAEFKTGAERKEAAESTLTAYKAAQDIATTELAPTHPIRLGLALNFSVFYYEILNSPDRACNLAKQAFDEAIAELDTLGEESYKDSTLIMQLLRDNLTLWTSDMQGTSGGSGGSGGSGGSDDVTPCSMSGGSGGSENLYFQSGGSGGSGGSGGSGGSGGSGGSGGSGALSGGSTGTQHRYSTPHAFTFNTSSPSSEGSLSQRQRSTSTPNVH

T5: dimeric Tobacco 14-3-3 scaffold (Tobacco)
T5 chain: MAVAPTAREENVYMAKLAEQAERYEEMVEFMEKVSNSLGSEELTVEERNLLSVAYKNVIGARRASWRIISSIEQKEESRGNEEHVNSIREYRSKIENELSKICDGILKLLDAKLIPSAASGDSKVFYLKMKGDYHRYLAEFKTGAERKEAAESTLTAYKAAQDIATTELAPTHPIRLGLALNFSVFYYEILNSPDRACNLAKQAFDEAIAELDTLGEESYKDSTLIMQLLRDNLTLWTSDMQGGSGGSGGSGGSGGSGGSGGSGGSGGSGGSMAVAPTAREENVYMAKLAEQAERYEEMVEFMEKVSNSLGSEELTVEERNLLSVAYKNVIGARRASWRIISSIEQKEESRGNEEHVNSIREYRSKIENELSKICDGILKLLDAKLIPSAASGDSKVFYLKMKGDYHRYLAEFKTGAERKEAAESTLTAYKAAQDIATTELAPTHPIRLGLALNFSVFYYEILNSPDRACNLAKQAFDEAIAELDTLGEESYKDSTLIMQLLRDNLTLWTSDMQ

T6: dT14-3-3_PKA/PKB, unphosphorylated (Tobacco | )
T6 chain: T2 chain with A587Q, T589S, S590T, F592T, A593P, E594N, P595V

T7: dT14-3-3_PKA/CHK1, unphosphorylated (Tobacco | )
T7 chain: T1 chain with L586R, Y587Q, P590T, M592T, E594N, N595V

T8: mExoS peptide (C-terminal region of exoenzyme S)
T8 chain: QGLLDALDLAS

B1: dT14-3-3_biPKA, phosphorylated by PKA (protein)
chain: T4 chain
modifications: not checked
B2: dT14-3-3_biPKB, phosphorylated by PKB (protein)
chain: T2 chain
modifications: not checked

Tests used:
[1] = target: T1, dT14-3-3_biCHK1, unphosphorylated; experiment: FP
[2] = target: T2, dT14-3-3_biPKB, unphosphorylated; experiment: FP
[3] = target: T3, dT14-3-3_PKB/CHK1, unphosphorylated; experiment: FP
[4] = target: T4, dT14-3-3_biPKA, unphosphorylated; experiment: FP
[5] = target: T5, dimeric Tobacco 14-3-3 scaffold; experiment: FP
[6] = target: T6, dT14-3-3_PKA/PKB, unphosphorylated; experiment: FP
[7] = target: T7, dT14-3-3_PKA/CHK1, unphosphorylated; experiment: FP
[8] = target: T8, mExoS peptide (C-terminal region of …); experiment: fluorescence polarisation

Binder | Kd [1] [µM] | Kd [2] [µM] | Kd [3] [µM] | Kd [4] [µM] | Kd [5] [µM] | Kd [6] [µM] | Kd [7] [µM] | fold decrease in binding affinity relative to the unphosphorylated state [8] [fold]
QGLLDALDLAS [mExoS peptide (C-terminal region of exoenzyme S)] | 7.57 | 6.91 | 6.62 | 5.77 | 9.69 | 6.43 | 6.64 | –
B1 | – | – | – | – | – | – | – | 35
B2 | – | – | – | – | – | – | – | 10
